Literature values, collected in paper PMC5672155.

How the values were obtained:
[1] = biological target: LC3 (Homo sapiens) (UniProt Q9GZQ8)
[2] = biological target: Sec62 (Homo sapiens) (UniProt Q99442)
[3] = biological target: Sec63 (Homo sapiens) (UniProt Q9UGP8)
[4] = biological target: Sec61α (Homo sapiens) (UniProt P61619)
Sequence of UniProt P61619 (P61619 whole entry): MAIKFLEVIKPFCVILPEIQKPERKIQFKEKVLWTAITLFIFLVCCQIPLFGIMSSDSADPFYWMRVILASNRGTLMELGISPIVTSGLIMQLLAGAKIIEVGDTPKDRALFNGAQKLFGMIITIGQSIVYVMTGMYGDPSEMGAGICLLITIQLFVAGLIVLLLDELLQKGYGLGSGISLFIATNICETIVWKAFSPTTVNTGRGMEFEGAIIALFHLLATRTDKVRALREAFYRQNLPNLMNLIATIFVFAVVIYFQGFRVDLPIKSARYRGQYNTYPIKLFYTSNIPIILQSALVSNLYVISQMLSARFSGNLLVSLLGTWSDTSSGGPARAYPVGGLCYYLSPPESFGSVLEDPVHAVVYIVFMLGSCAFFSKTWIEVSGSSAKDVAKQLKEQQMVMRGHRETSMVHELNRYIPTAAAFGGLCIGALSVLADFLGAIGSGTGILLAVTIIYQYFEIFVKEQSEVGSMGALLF

Sequence of UniProt Q99442 (Q99442 whole entry): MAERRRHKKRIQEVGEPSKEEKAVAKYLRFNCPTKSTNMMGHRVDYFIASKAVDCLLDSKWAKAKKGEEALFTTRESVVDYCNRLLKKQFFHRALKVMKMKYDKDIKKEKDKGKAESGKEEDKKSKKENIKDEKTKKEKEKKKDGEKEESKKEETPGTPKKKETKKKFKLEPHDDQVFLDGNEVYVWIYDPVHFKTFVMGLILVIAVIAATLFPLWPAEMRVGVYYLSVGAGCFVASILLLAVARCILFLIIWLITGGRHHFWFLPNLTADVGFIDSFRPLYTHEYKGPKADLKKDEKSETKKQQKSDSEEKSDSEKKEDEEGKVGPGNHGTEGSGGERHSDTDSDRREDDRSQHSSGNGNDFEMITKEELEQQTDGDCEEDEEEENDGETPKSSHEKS

Sec62 (from UniProt Q99442)
Kd [1]: 20 µM

Sec63 (from UniProt Q9UGP8)
Kd [2]: 0.005 µM

BiP (from UniProt P11021)
Kd [3]: 5 µM | Kd [4]: 500 µM
